Measurements as given in the DeepSol protein solubility set.

assay: soluble on expression in E. coli; label from the status in PepcDB or PDB records

Sequence	soluble on expression in E. coli
MKLKITLYSVCLLMLLAACQQDGPTPEPSVGSRTVLVYMIAQNSLAPLASADIEEMKEGMRQVDATSGNLLVYIDDYSAPRLIRLGKDKKGKVVEETIENYPEQNSADANVMKKVISTAFNQYKAEKYGMVFWSHGEGWIPSPAKTRWFGQDGNNYMDIADLHAALQVAPDLDFLFFDACFMEAVEVAYALRDCGSYLISSPTEIPGPGAPYQTVVPAMFSAENAALKIASCYYDYYQSRYNDGIGMSNEDWTGGVSVGVAKMSELENLAVATSKVLPRYITGKQNFDLSGVMCYDRRTDKQYYYDLDRFIYQITAGNGDYDSWREAFDKVMVYWKSTPRNYSAYAGMFTMNQDAKGLSTYIPRMSAPSLNTSYQQTEWYKVSGWADTGWYKNLEHHHHHH	not soluble
MKLLSTYRLQPMKFSEIRNRLDYFVELGVTHLYLSPVLKARPGSTHGYDVVDYNTINDELGGEEEYIRLIDEAKSKGLGIIQDIVPNHMAVHHTNWRLMDVLKKGRHSRYYNYFDFYEEEEKIRIPILGDRNFKITYVNDEPYLDYYGNLFPINDEGRNYLNDIEKLLKVQYYELVDWRDYPSYRRFFAVNELIAVRQELEWVFEDSHSKILSFEVDGYRIDHIDGLFKPEEYLRRLKNKIGNKHIFVEKILSIGEKLRWDFIDGTTGYDFLNYSNLLFTDNEDKMTEIYKNILDIDLDELVKETKKKIIDTLFKHDIERISMMLGVNYEEIKEFLSCLKVYRTYITENDFRDEEIIRNCSQKVYESMKKNVTAFMKLQQYMPAVFAKAYEDTVLFIYNRLISLNEVGSDLHYYSISCDKFHEFNLKRVGTLSFNATSTHDTKFSEDVRMRISAISEIPDEWAKKVNEWHNILNPNIDKNDEYRLYQTIVGSFDGFNNEYKERLKAHMIKALREAKVHTDWVNVNTEYEKKMTYLIDKMFNNEKFMESFLEFESKIDKMGKVKSLSLVALKITSPGVADFYQGLENFRYLLTDPDNRRPVVFSELPKRYEEGLFNNGRIKAYVTKVLLNLRKSMKDFFINSEYKPLKLQKGLCGFMRGDKVLVIVKTLNRDYDIEIDGEYTDVITDETVRGRVKVDKLPLILVK	soluble
MKLPPSLICPPLLALYRVWCRTLNFEEEGRAAVDVLWQERKPMVFALWHDELFPLMHVRRELEIVTVVSQSRDGEYLARVLQGLGLHTARGSSSRGGVKALLQAARMMQKQNLCGCVTVDGPRGPRHRVKEGAIFLAHRAKAPIVPIRLFMSRTKVFAKAWDKFQLPLPGSDVRVVFGAPYHTAENALESPRLEDERQRLEAKLEALALEHHHHHH	soluble
MKLTTLGSWGAYPYQDAGTTSYLVTGHDGFQLLMDAGSRALNELEKEISPLDLDAVIISHYHPDHVADLGVLRHYFQLYPKHLWQPKVLPIYGHDEDRNEFAKLSIPDVSEGRAYDVTGVEQIGSFDITFLKTVHPVVCYAFRIVERATGQVLVFTGDSGYFEGLADFAKEADLFLADVYLYEGNENHMAHLTSKEAGLMASQAGVKKLVLTHMPPVPPDGINSKNHLEVLRQETQAYAGNIPVDLALPHKSWNLGSLS	not soluble
MKLVCISDTHSLHRRIPEIPDGDVLIHAGDSLGQGSLENIEDLNDWLGTLPHRHKIVIAGNHDWAFQEMPGEARTALSNAVYLEDSGVEIEGNRFWGSPWTPTFMDWAFMLERGEPLYQKWQLVPDNTDVLITHGPPKGIGDEANLGFKCQNVGCVDLLARIHQLSLKAHIFGHIHEGYGEYLRGKTRLINASTCTARYEPRNAPIVVDVLEHHHHHH	not soluble
MKLVGSYTSPFVRKLSILLLEKGITFEFINELPYNADNGVAQFNPLGKVPVLVTEEGECWFDSPIIAEYIELMNVAPAMLPRDPLESLRVRKIEALADGIMDAGLVSVREQARPAAQQSEDELLRQREKINRSLDVLEGYLVDGTLKTDTVNLATIAIACAVGYLNFRRVAPGWCVDRPHLVKLVENLFSRESFARTEPPKA	soluble
MKLYLIGLGPGDPELLTLKALRLIQRLPVLFYPKEEGREPVALGIARPFLPEGKPLLPLPLFTGGDPKEAERARREAARRVREALSRYGEGGYLVLGDSLLYASPLNLLPHLEGVAVEAVPGISAHQLAAASLLKPIALGEEGFAAVTGLGPVDPEGLDRFQSVFVYKAKDLEALERAFPDREGWAFLRLGMPGERVLPLGAAKGVARDYWTLVGLWRKGGEG	soluble
MKLYVLIIAIILSIGTARTQNIDSLLMQREDTTQFIRSDSLVLQFLEYSNIPITDNNKVKLIKSGREKFEDLFEAIRGAKHHIHLEYFNFRNDSIANALFDLLGEKVKEGVKVRAMFDAFGNWSNNKPLKKRHLKAIREKGIEIVKFDPFKFPYINHAAHRDHRKIAVIDGKIGYTGGMNIADYYINGLPKIGTWRDMHIRIEGDAVNILQEIFLDIWNKTTKQNIVGEEYFPNHPERADSCNTVISIVDRTPKRNSRMLSHTYAMSIYAAQHDVRIVNPYFVPTSSIRKALKRALNRGTKVEIMISSKSDIPFTPDASLYAVQKLMKKGAMIYLYNGGFHHSKIMMVDDLFCTVGTANLNSRSLRYDYETNAFIFDKDITQQLNDVFEADMLHCTRLTPEMWKQKSAWKKFKCWFANLFTPFL	not soluble
MKMDTGALTFQQKIYWLVKQIPLGRVATYGQIAALCGWPRHGRYVGYALYRVAPNSDIPWHRVVNAQGKISYAPQRRGTDELQRWRLAAEGIIFTAGDRINLRRYQWQPPATVYQQLIWPEGAATDSAKALEHHHHHH	soluble
MKMKLAVLPGDGIGPEVMDAAIRVLKTVLDNDGHEAVFENALIGGAAIDEAGTPLPEETLDICRRSDAILLGAVGGPKWDHNPASLRPEKGLLGLRKEMGLFANLRPVKAYATLLNASPLKRERVENVDLVIVRELTGGLYFGRPSERRGPGENEVVDTLAYTREEIERIIEKAFQLAQIRRKKLASVDKANVLESSRMWREIAEETAKKYPDVELSHMLVDSTSMQLIANPGQFDVIVTENMFGDILSDEASVITGSLGMLPSASLRSDRFGMYEPVHGSAPDIAGQGKANPLGTVLSAALMLRYSFGLEKEAAAIEKAVDDVLQDGYCTGDLQVANGKVVSTIELTDRLIEKLNNSAAGPRIFQ	soluble
MKMQTYYYVLASRRFLLQEEPIEEVLKERTRHYHEQEKEIDFWLVPQPAFLEAPEFADIKAKCPQPAAAIISTNSQFITWLKLRLEYVVTGEFSAPSETIPNPLASLATASLEHHHHHH	soluble
MKNRYAKVSNMAKNASSPSRRFMKLAGMTASIATKTVSNSIRNLTADDEQKLASKTKLFQDIGIQIADTLGEMKGAVMKVGQIASQYKDIFPPEVAKAIAKLQRQAPAVPFSAIQQQVEKELGKPLLQAFQSFDQQPFAAASIGQVHRAVLPDGQEVVVKVQYPGVDEACESDLKQVRLALRLMGVIKIDKKLQDQLFTEIQDSLSDELNYEIEAQNLEVFKTFHQQLDNKIIIPTVYKNYSSRRILTLSLERGDSIETASTWPLETRNQIGRRLIRALGQEIFYLKRFHCDPHPGNFAFREDGTVIIYDFGGVKTLSSDIVSHFKHLVQAARQQDITAIENHLDALHSLSDKGLFPEELYLQWLEVLLRPLTTHYDFAENSAHHDGVTLVKKSLKYWDVFKPSPDTLMVNRTISGHYWNLIHLKVHDDLSDLFEELVPTTIN	not soluble
MKNYKKYYIIPAPPEEVYLALTVPTTLLLWTGEEAVMSTEPESEFSLWGGSIEGRNIEFIEGKKIVQQWYFGDQEEPSIVTIILHPDKQDSTSAELRHTNIPDEAYEDMVEGWNGAYFGALQEFYEDEELEHHHHHH	soluble
MKPARLSQTVVAPGCWGELPWGNYYREALEQQLNPWFAKMYGFHLLKIGNLSAEINSEACAVSHQVNVSSQGSPMQVLADPLHLPFADKSVDVCLLAHTLPWCTDPHRLLREADRVLIDDGWLVISGFNPLSLMGLRKLVPVLRKTPPYNSRMFTLMRQLDWLSLLNFEVLHYSRFHVLPWKKQGGRLLNTHIPALGCLQLIVARKRTIPLTLNPLRHNKSKTPIRQTVGATRQYRKPDG	not soluble
MKPKEDREWEKFKTKHITSQSVADFNCNRTMNDPAYTPDGQCKPINTFIHSTTGPVKEICRRATGRVNKSSTQQFTLTTCKNPIRCKYSQSNTTNFICITCRDNYPVHFVKTGKC	soluble
